Assay results as given in US20110118131A1 (published 2011).

Molecular target: T1, IL-1β (UniProt P01584 117-269)
T1 construct: Antigen immobilised on the Biacore chip
Test: Biacore, periplasmic extract

B1: XPA23 light chain Q27H (Fab, V domains shown)
VH: EVQLLESGGGLVQPGGSLRLSCAASGFTFSKYFMFWVRQAPGKGLEWVSVISPSGGMTRYADSVKGRFTISRDNSKNTLYLQMNSLRAEDTAVYYCARVGYGGNSDYWGQGTLVTVSS
VL: DIQMTQSPSSVSASVGDRLTIICRASHDINRWLAWYQQTPGNAPKLLIHSATSLQSGVPSRFSGSGSGTDFTLTINSLQPEDFATYYCQQADSFPLTFGGGTKVEIK
fold difference in affinity vs original: 1.09 fold

B2: XPA23 light chain Q27S (Fab, V domains shown)
VH: EVQLLESGGGLVQPGGSLRLSCAASGFTFSKYFMFWVRQAPGKGLEWVSVISPSGGMTRYADSVKGRFTISRDNSKNTLYLQMNSLRAEDTAVYYCARVGYGGNSDYWGQGTLVTVSS
VL: DIQMTQSPSSVSASVGDRLTIICRASSDINRWLAWYQQTPGNAPKLLIHSATSLQSGVPSRFSGSGSGTDFTLTINSLQPEDFATYYCQQADSFPLTFGGGTKVEIK
fold difference in affinity vs original: 3.3 fold

B3: XPA23 light chain Q27K (Fab, V domains shown)
VH: EVQLLESGGGLVQPGGSLRLSCAASGFTFSKYFMFWVRQAPGKGLEWVSVISPSGGMTRYADSVKGRFTISRDNSKNTLYLQMNSLRAEDTAVYYCARVGYGGNSDYWGQGTLVTVSS
VL: DIQMTQSPSSVSASVGDRLTIICRASKDINRWLAWYQQTPGNAPKLLIHSATSLQSGVPSRFSGSGSGTDFTLTINSLQPEDFATYYCQQADSFPLTFGGGTKVEIK
binding result: no binding

B4: XPA23 light chain Q27R (Fab, V domains shown)
VH: EVQLLESGGGLVQPGGSLRLSCAASGFTFSKYFMFWVRQAPGKGLEWVSVISPSGGMTRYADSVKGRFTISRDNSKNTLYLQMNSLRAEDTAVYYCARVGYGGNSDYWGQGTLVTVSS
VL: DIQMTQSPSSVSASVGDRLTIICRASRDINRWLAWYQQTPGNAPKLLIHSATSLQSGVPSRFSGSGSGTDFTLTINSLQPEDFATYYCQQADSFPLTFGGGTKVEIK
fold difference in affinity vs original: 0.89 fold

B5: XPA23 light chain Q27W (Fab, V domains shown)
VH: EVQLLESGGGLVQPGGSLRLSCAASGFTFSKYFMFWVRQAPGKGLEWVSVISPSGGMTRYADSVKGRFTISRDNSKNTLYLQMNSLRAEDTAVYYCARVGYGGNSDYWGQGTLVTVSS
VL: DIQMTQSPSSVSASVGDRLTIICRASWDINRWLAWYQQTPGNAPKLLIHSATSLQSGVPSRFSGSGSGTDFTLTINSLQPEDFATYYCQQADSFPLTFGGGTKVEIK
binding result: no binding

B6: XPA23 light chain R31I (Fab, V domains shown)
VH: EVQLLESGGGLVQPGGSLRLSCAASGFTFSKYFMFWVRQAPGKGLEWVSVISPSGGMTRYADSVKGRFTISRDNSKNTLYLQMNSLRAEDTAVYYCARVGYGGNSDYWGQGTLVTVSS
VL: DIQMTQSPSSVSASVGDRLTIICRASQDINIWLAWYQQTPGNAPKLLIHSATSLQSGVPSRFSGSGSGTDFTLTINSLQPEDFATYYCQQADSFPLTFGGGTKVEIK
fold difference in affinity vs original: 0.68 fold

B7: XPA23 light chain R31D (Fab, V domains shown)
VH: EVQLLESGGGLVQPGGSLRLSCAASGFTFSKYFMFWVRQAPGKGLEWVSVISPSGGMTRYADSVKGRFTISRDNSKNTLYLQMNSLRAEDTAVYYCARVGYGGNSDYWGQGTLVTVSS
VL: DIQMTQSPSSVSASVGDRLTIICRASQDINDWLAWYQQTPGNAPKLLIHSATSLQSGVPSRFSGSGSGTDFTLTINSLQPEDFATYYCQQADSFPLTFGGGTKVEIK
fold difference in affinity vs original: 11.1 fold

B8: XPA23 light chain R31N (Fab, V domains shown)
VH: EVQLLESGGGLVQPGGSLRLSCAASGFTFSKYFMFWVRQAPGKGLEWVSVISPSGGMTRYADSVKGRFTISRDNSKNTLYLQMNSLRAEDTAVYYCARVGYGGNSDYWGQGTLVTVSS
VL: DIQMTQSPSSVSASVGDRLTIICRASQDINNWLAWYQQTPGNAPKLLIHSATSLQSGVPSRFSGSGSGTDFTLTINSLQPEDFATYYCQQADSFPLTFGGGTKVEIK
fold difference in affinity vs original: 0.38 fold

B9: XPA23 light chain R31L (Fab, V domains shown)
VH: EVQLLESGGGLVQPGGSLRLSCAASGFTFSKYFMFWVRQAPGKGLEWVSVISPSGGMTRYADSVKGRFTISRDNSKNTLYLQMNSLRAEDTAVYYCARVGYGGNSDYWGQGTLVTVSS
VL: DIQMTQSPSSVSASVGDRLTIICRASQDINLWLAWYQQTPGNAPKLLIHSATSLQSGVPSRFSGSGSGTDFTLTINSLQPEDFATYYCQQADSFPLTFGGGTKVEIK
fold difference in affinity vs original: 0.51 fold

B10: XPA23 light chain R31K (Fab, V domains shown)
VH: EVQLLESGGGLVQPGGSLRLSCAASGFTFSKYFMFWVRQAPGKGLEWVSVISPSGGMTRYADSVKGRFTISRDNSKNTLYLQMNSLRAEDTAVYYCARVGYGGNSDYWGQGTLVTVSS
VL: DIQMTQSPSSVSASVGDRLTIICRASQDINKWLAWYQQTPGNAPKLLIHSATSLQSGVPSRFSGSGSGTDFTLTINSLQPEDFATYYCQQADSFPLTFGGGTKVEIK
fold difference in affinity vs original: 1.18 fold

B11: XPA23 light chain Q27P (Fab, V domains shown)
VH: EVQLLESGGGLVQPGGSLRLSCAASGFTFSKYFMFWVRQAPGKGLEWVSVISPSGGMTRYADSVKGRFTISRDNSKNTLYLQMNSLRAEDTAVYYCARVGYGGNSDYWGQGTLVTVSS
VL: DIQMTQSPSSVSASVGDRLTIICRASPDINRWLAWYQQTPGNAPKLLIHSATSLQSGVPSRFSGSGSGTDFTLTINSLQPEDFATYYCQQADSFPLTFGGGTKVEIK
binding result: no binding

B12: XPA23 light chain Q27N (Fab, V domains shown)
VH: EVQLLESGGGLVQPGGSLRLSCAASGFTFSKYFMFWVRQAPGKGLEWVSVISPSGGMTRYADSVKGRFTISRDNSKNTLYLQMNSLRAEDTAVYYCARVGYGGNSDYWGQGTLVTVSS
VL: DIQMTQSPSSVSASVGDRLTIICRASNDINRWLAWYQQTPGNAPKLLIHSATSLQSGVPSRFSGSGSGTDFTLTINSLQPEDFATYYCQQADSFPLTFGGGTKVEIK
binding result: no binding

B13: XPA23 light chain Q27L (Fab, V domains shown)
VH: EVQLLESGGGLVQPGGSLRLSCAASGFTFSKYFMFWVRQAPGKGLEWVSVISPSGGMTRYADSVKGRFTISRDNSKNTLYLQMNSLRAEDTAVYYCARVGYGGNSDYWGQGTLVTVSS
VL: DIQMTQSPSSVSASVGDRLTIICRASLDINRWLAWYQQTPGNAPKLLIHSATSLQSGVPSRFSGSGSGTDFTLTINSLQPEDFATYYCQQADSFPLTFGGGTKVEIK
fold difference in affinity vs original: 0.83 fold

B14: XPA23 light chain R31E (Fab, V domains shown)
VH: EVQLLESGGGLVQPGGSLRLSCAASGFTFSKYFMFWVRQAPGKGLEWVSVISPSGGMTRYADSVKGRFTISRDNSKNTLYLQMNSLRAEDTAVYYCARVGYGGNSDYWGQGTLVTVSS
VL: DIQMTQSPSSVSASVGDRLTIICRASQDINEWLAWYQQTPGNAPKLLIHSATSLQSGVPSRFSGSGSGTDFTLTINSLQPEDFATYYCQQADSFPLTFGGGTKVEIK
binding result: no binding

B15: XPA23 light chain Q27T (Fab, V domains shown)
VH: EVQLLESGGGLVQPGGSLRLSCAASGFTFSKYFMFWVRQAPGKGLEWVSVISPSGGMTRYADSVKGRFTISRDNSKNTLYLQMNSLRAEDTAVYYCARVGYGGNSDYWGQGTLVTVSS
VL: DIQMTQSPSSVSASVGDRLTIICRASTDINRWLAWYQQTPGNAPKLLIHSATSLQSGVPSRFSGSGSGTDFTLTINSLQPEDFATYYCQQADSFPLTFGGGTKVEIK
fold difference in affinity vs original: 0.64 fold

B16: XPA23 light chain R31G (Fab, V domains shown)
VH: EVQLLESGGGLVQPGGSLRLSCAASGFTFSKYFMFWVRQAPGKGLEWVSVISPSGGMTRYADSVKGRFTISRDNSKNTLYLQMNSLRAEDTAVYYCARVGYGGNSDYWGQGTLVTVSS
VL: DIQMTQSPSSVSASVGDRLTIICRASQDINGWLAWYQQTPGNAPKLLIHSATSLQSGVPSRFSGSGSGTDFTLTINSLQPEDFATYYCQQADSFPLTFGGGTKVEIK
fold difference in affinity vs original: 0.92 fold

B17: XPA23 light chain Q27V (Fab, V domains shown)
VH: EVQLLESGGGLVQPGGSLRLSCAASGFTFSKYFMFWVRQAPGKGLEWVSVISPSGGMTRYADSVKGRFTISRDNSKNTLYLQMNSLRAEDTAVYYCARVGYGGNSDYWGQGTLVTVSS
VL: DIQMTQSPSSVSASVGDRLTIICRASVDINRWLAWYQQTPGNAPKLLIHSATSLQSGVPSRFSGSGSGTDFTLTINSLQPEDFATYYCQQADSFPLTFGGGTKVEIK
binding result: no binding

B18: XPA23 light chain R31H (Fab, V domains shown)
VH: EVQLLESGGGLVQPGGSLRLSCAASGFTFSKYFMFWVRQAPGKGLEWVSVISPSGGMTRYADSVKGRFTISRDNSKNTLYLQMNSLRAEDTAVYYCARVGYGGNSDYWGQGTLVTVSS
VL: DIQMTQSPSSVSASVGDRLTIICRASQDINHWLAWYQQTPGNAPKLLIHSATSLQSGVPSRFSGSGSGTDFTLTINSLQPEDFATYYCQQADSFPLTFGGGTKVEIK
binding result: no binding

B19: XPA23 light chain R31A (Fab, V domains shown)
VH: EVQLLESGGGLVQPGGSLRLSCAASGFTFSKYFMFWVRQAPGKGLEWVSVISPSGGMTRYADSVKGRFTISRDNSKNTLYLQMNSLRAEDTAVYYCARVGYGGNSDYWGQGTLVTVSS
VL: DIQMTQSPSSVSASVGDRLTIICRASQDINAWLAWYQQTPGNAPKLLIHSATSLQSGVPSRFSGSGSGTDFTLTINSLQPEDFATYYCQQADSFPLTFGGGTKVEIK
fold difference in affinity vs original: 8.48 fold

B20: XPA23 light chain R31F (Fab, V domains shown)
VH: EVQLLESGGGLVQPGGSLRLSCAASGFTFSKYFMFWVRQAPGKGLEWVSVISPSGGMTRYADSVKGRFTISRDNSKNTLYLQMNSLRAEDTAVYYCARVGYGGNSDYWGQGTLVTVSS
VL: DIQMTQSPSSVSASVGDRLTIICRASQDINFWLAWYQQTPGNAPKLLIHSATSLQSGVPSRFSGSGSGTDFTLTINSLQPEDFATYYCQQADSFPLTFGGGTKVEIK
fold difference in affinity vs original: 0.92 fold

B21: XPA23 light chain Q27I (Fab, V domains shown)
VH: EVQLLESGGGLVQPGGSLRLSCAASGFTFSKYFMFWVRQAPGKGLEWVSVISPSGGMTRYADSVKGRFTISRDNSKNTLYLQMNSLRAEDTAVYYCARVGYGGNSDYWGQGTLVTVSS
VL: DIQMTQSPSSVSASVGDRLTIICRASIDINRWLAWYQQTPGNAPKLLIHSATSLQSGVPSRFSGSGSGTDFTLTINSLQPEDFATYYCQQADSFPLTFGGGTKVEIK
fold difference in affinity vs original: 0.82 fold
